Assay results from PMC11099193, “Extracellular modulation of TREK-2 activity with nanobodies provides insight into the mechanisms of K2P channel regulation” (Nature Communications, 2024).
Read-outs that look alike come from different tables or passages of the source.

T1: human TREK-2 protein (residues Gly67 to Glu340) (human)
T1 chain: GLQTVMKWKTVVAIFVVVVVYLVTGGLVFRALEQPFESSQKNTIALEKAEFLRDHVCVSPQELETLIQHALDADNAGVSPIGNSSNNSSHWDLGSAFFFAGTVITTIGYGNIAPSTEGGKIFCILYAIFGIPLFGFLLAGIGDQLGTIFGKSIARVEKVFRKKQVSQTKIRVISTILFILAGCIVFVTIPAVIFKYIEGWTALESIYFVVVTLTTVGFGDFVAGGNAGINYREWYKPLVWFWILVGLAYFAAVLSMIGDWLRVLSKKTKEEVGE

T2: biotinylated TREK-2 (Homo sapiens, biotin (site not stated))
T2 construct: the buffer (OGNG/CHS) is that of the cryo-EM sample
T2 chain: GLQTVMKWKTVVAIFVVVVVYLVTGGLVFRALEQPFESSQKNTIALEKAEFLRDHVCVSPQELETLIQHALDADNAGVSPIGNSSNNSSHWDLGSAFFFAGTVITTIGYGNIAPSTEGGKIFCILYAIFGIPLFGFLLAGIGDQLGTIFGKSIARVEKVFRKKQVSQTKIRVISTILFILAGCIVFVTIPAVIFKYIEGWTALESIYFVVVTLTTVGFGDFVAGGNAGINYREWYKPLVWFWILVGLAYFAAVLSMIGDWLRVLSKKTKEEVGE


Experiments:
[1] = biological target: T1, human TREK-2 protein (residues Gly67 to …)
[2] = biological target: T3, TREK-1 tagged with mCherry (Homo sapiens, UniProt O95069); test: immunostaining of cells or tissue; HEK293T cells transfected with K2P-mCherry, fixed with 4% formaldehyde, incubated with nanobody-mVenus for 2 h at 37 °C, washed, imaged for overlap of the two fluorescent signals
T3 construct: human TREK-1 K2P channel, stop codon removed and mCherry fused in frame to the C-terminus by a (GS)2 linker; source: HEK293T, transfected (pFAW vector), fixed cells; not shown: mCherry, C-terminal, kept
T3 sequence (O95069 whole entry, the tested form may be a part): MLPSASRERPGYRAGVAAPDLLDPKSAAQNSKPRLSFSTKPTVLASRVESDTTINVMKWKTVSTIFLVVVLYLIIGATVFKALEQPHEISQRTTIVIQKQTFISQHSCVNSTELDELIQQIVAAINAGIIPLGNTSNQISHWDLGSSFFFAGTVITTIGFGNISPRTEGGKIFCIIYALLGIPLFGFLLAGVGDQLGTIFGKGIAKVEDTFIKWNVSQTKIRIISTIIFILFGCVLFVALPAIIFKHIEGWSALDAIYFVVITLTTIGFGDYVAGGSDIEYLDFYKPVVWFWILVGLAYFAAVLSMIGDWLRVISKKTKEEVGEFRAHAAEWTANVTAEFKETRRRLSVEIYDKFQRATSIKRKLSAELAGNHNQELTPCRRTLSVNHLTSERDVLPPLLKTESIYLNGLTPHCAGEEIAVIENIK

TREK-2-mCherry fusion = biological target: T4, TREK-2-mCherry fusion (Homo sapiens, UniProt P57789-4, strain); test: as above
T4 construct: The legend says HEK-293, the methods HEK293T; also called TREK-2 tagged with the mCherry fluorescent protein; K2P-mCherry-pFAW; source: HEK293T, transfected (pFAW vector), fixed cells; not shown: mCherry, C-terminal, kept
T4 sequence (P57789 whole entry, looked up, stated change not applied, the tested form may be a part): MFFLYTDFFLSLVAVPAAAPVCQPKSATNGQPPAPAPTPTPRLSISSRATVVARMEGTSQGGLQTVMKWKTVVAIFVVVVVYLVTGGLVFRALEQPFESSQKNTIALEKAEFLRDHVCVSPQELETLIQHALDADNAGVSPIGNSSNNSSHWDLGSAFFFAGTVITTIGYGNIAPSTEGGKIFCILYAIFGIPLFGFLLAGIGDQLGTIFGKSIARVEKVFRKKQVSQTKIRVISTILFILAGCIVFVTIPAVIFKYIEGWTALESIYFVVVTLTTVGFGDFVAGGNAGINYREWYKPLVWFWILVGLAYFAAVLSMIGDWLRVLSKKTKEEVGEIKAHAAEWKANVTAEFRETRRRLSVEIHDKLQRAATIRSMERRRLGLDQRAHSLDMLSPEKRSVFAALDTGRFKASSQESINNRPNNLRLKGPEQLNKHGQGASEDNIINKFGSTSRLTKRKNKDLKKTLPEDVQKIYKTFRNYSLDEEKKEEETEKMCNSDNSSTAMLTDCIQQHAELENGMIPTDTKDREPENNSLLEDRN

[3] = biological target: T1, human TREK-2 protein (residues Gly67 to …); test: SEC; each nanobody mixed with purified TREK-2 in a 2:1 molar ratio, Sepax SRT SEC-300 column in 200 mM KCl, 20 mM HEPES pH 7.5; shift of the 280 nm TREK-2 peak against TREK-2 alone; settings: both partners purified
biotinylated TREK-2 = biological target: T2, biotinylated TREK-2; test: BLI; Octet Red; biotinylated TREK-2 (50 nM) loaded on streptavidin biosensors in 200 mM KCl, 20 mM HEPES pH 7.5, 0.12% OGNG, 0.012% CHS; nanobody dilutions 2 µM-7.8 nM (Nb61) and 1000 nM-3.9 nM (Nb6158); 600 s association, 600 s dissociation; settings: both partners purified

binding result [1]	Binder	further results
binds	CA10779 (VHH) VHH: QVQLVESGGGAVQAGGSLRLSCASSDHSFTRYTIAWFRQAPGKEREFVAALTWNGGITNYADSVKGRFTISRENGKNTAYLQMDALESEDTAVYYCAAVFGPASLTREDMYEYWGQGTQVTVSS	
binds	CA10752 (VHH) VHH: QVQLVESGGGLVQAGGSLRLSCAASGRTSSTYAMSWFRQPPGKEREFVARIRWSGSNTYYADSVKGRFTISGDNAKNTVYLQMNSLKAEDTAVYYCAAVIDPYSSAYEYWGQGTQVTVSS	
binds	CA10753 (VHH) VHH: QVQLVESGGGLVQAGGSLRLSCAASGRTFSTYAMSWFRQAPGKEREFVARIRWSGTSTAYADSVKGRFFISGDNAKNTVYLQMNSLKPEDTAVYYCAAVINPYSSAYEYWGQGTQVTVSS	
binds	CA10766 (VHH) VHH: QVQLVESGGGLVQAGGSLRLSCAASGRSFSTYGIGWFRQAPGRERDLVASISWSGGGTYYADSVKGRSTISRDNAKNMVDLQMNSLKPEDTAVYYCAARRLGGVGRIVQYDYWGQGTQVTVSS	
binds	CA10772 (VHH) VHH: QVQLVESGGGLVQPGGSLRLSCAASGFTFSAYAMRWHRQAPGKGLEWVSSIDHSGAWPNYADSVKGRFTISRDNAKNTLYLQMDSLKPEDTAVYYCSKAGFRGQGTQVTVSS	
binds	CA10764 (VHH) VHH: QVQLVESGGGLAQAGGSLRLSCAASGRTFSNYAMGWFRQAPGKEREFVATISSSGGTIRYADSVKGRFTISRDNAKNTVALQMNVLKPEDTAVYYCAQSKYGRAWSDRYEYDRWGQGTQVTVSS	
	Nb-Binder-58 fused to the mVenus fluorescent protein (VHH, as the VHH of m9 (Nb58); mVenus joined by a (GS)2 linker; also called Nb58 fused to mVenus; source: cloned into the pFAW vector; not shown: mVenus, C-terminal, kept) VHH: QVQLVESGGGLVQAGGSLRLSCAASGRAGSGYAMGWFRQAPGKEREIVGAISWSGDNTYYADSVRGRVTISRDYAQNTVYLQMNSLKPEDTAVYYCAADGRGNLRRGTAGRYVEYWGQGTQVTVSS	binding result [2]: no binding; binding result (TREK-2-mCherry fusion): binds
	Nb-Binder-58 (VHH, also called CA10758; Nb58; source: E. coli WK6, periplasm, purified (Ni-NTA)) VHH: QVQLVESGGGLVQAGGSLRLSCAASGRAGSGYAMGWFRQAPGKEREIVGAISWSGDNTYYADSVRGRVTISRDYAQNTVYLQMNSLKPEDTAVYYCAADGRGNLRRGTAGRYVEYWGQGTQVTVSS	binding result [3]: binds
binds	CA10771 (VHH) VHH: QVQLVESGGGLVQAGGSLRLSCAASGRTASLYAMDWFRQAPGKEREFVARLILSTFGTNYADSVKGRFTFSRDNAKNTVYLQMNNLKPEDTGVYFCAAHSLTSTNWDQGTQVTVSS	
binds	CA10769 (VHH) VHH: QVQLVESGGGLVQAGDSLRLSCAASGRTSSSDVMGWFRQAPGKGREFVAETSWRGGKTAYADSVKGRFAISRDNAKNTVYLQMNNLKPEDTAVYYCAVLHADSSTYAYWGQGTRVTVSS	
binds	CA10763 (VHH) VHH: QVQLVESGGGLVQAGGSLRLSCAASGLTFSGYPMGWFRQAPGKEREFVATISRSGNNMHYADSVKGRFTISRDNAKNTVSLQMNSLKPEDTAVYYCAADSTTLRRGVASVEYWGQGTQVTVSS	
binds	CA10777 (VHH) VHH: QVQLVESGGGLVQPGGSLRLSCAASGLIARLIDWGWYRQAPGKQRELVAAITAGGRTNYTDSVKGRFTISRDDPKNTVYLQMSALKPEDTAVYYCCVDFRSYAGKQYHYCGQGTQVTVSS	
binds	CA10755 (VHH) VHH: QVQLVESGGGLVQAGGSLRLSCAASRSIVTINAMSWHRQAPGKQRELVASITKRGRTNIADSVKGRFAISWDRNTVYLQMNSLKPEDTAVYYCAALTDIPMNTYWGQGTQVTVSS	
binds	CA10756 (VHH) VHH: QVQLVESGGGLVQAGGSLRLSCAASRSFVTINAISWHRQAPGKQRELVASITKRGRTNIADSVKGRFAISWDKNTVYLQMNSLKPEDTANYYCAALTDIPVNTYWGQGTQVTVSS	
binds	CA10778 (VHH) VHH: QVQLVESGGGLVQAGGSLRLSCAASRGIFTITAMSWHRQAPGKQRELVASITRRGRTNIADSVKDRFAISWDKNTVYLQMNSLKPEETAVYYCAALTDAPMNTYWGQGTQVTVSS	
binds	CA10773 (VHH) VHH: QVQLVESGGGLVQPGGSLRLSCAASGFTFSSYPMSWARQAPGKGLEWVSAINRGGSSTNYADSVKGRFTISRDNAKNTLYLQMDSLKPEDTAVYYCFKGGTRGQGTQVTVSS	
binds	CA10774 (VHH) VHH: QVQLVESGGGLVQPGGTLRLSCAASGFTFSSKPMSWARQAPGKGLEWVSAISRDGSSTNYADSVKGRFTISRNNAWNTLYLQMDNLKPEDTAVYYCFMGGTRGQGTQVTVSS	
	Nb-Binder-57 fused to mVenus (VHH, mVenus joined by a (GS)2 linker; also called CA10757; Nb57; source: cloned into the pFAW vector; not shown: mVenus, C-terminal, kept) VHH: QVQLVESGGGLVQAGDSLRLSCASSGRALSNVAMGWFRQAPGKEREIVAAISWSGDNTYYADSGRGRFTISRDNAKNTVYLQMNNLRPEDTAVYYCAADGRGNLRRGTAGRYVDYWGQGTQVTVSS	binding result [2]: no binding; binding result (TREK-2-mCherry fusion): binds
binds	CA10754 (VHH) VHH: QVQLVESGGGLVQAGGSLRLSCAASGRTFSTYAMSWFRQAPGKEREFVARIRWSTTRTSSTYYADSVKGRFTISGDNAKNTVYLQMDSLKPEDTAVYYCAAVINPYSSAYEYWGQGTQVTVSS	
binds	CA10759 (VHH) VHH: QVQLVESGGGLVQAGGSLRLSCAASGLTFSRYNMGWFRQAPGKEREFVAAINRYGGTMYATDSVKGRFTISRDNVKSTVDLQMNRLKPEDTAVYYCAADQQYMSRLEADFGSWGQGTQVTVSS	
binds	CA10760 (VHH) VHH: QVQLVESGGGLVQAGGSLRLSCAASGLTFSAYNMGWFRQAPGKEREFVAAINRYGGTLYTTDSVKGRFTISRDNVKSTVDLQMNRLEPEDTAVYYCAADQQYMSRLEADFGSWGQGTQVTVSS	
	Nb-Inhibitor-61 (VHH, also called CA10761; Nb61; source: E. coli WK6, periplasm, purified (Ni-NTA)) VHH: QVQLVESGGGLVQAGDSLRVSCAGSGFTFTSYGMGWFRQAPGKEREFVASINWNSNTAYADSVRGRFTISRDNAESMMYLQMNSLKPEDTAVYYCAATRAYSKPRVDSRHYDYWGQGTQVTVSS	Kd (biotinylated TREK-2): 1100 nM
binds	CA10765 (VHH) VHH: QVQLVESGGGLVQAGGSLRLSCAASGFTFDDYAIGWFRQAPGKEREGVSCISSSDGSTYYADSVKGRFTISSDNAKNTVYLQMNSLKPEDTAVYYCAADPYLYCSDYGDSGTLSYYGVDYWGKGTQVTVSS	
binds	CA10780 (VHH) VHH: QVQLVESGGGLVQAGGSLRLSCAASGRTFSSYAMGWFRQAPGKEREFVAAISWSGGSTYYADSVKGRFTVSRDNAKNTVYLQMNSLKPEDTAVYYCAADSISTAQAMRVNERDYGMDYWGKGTQVTVSS	
binds	CA10770 (VHH) VHH: QVQLVESGGGLVQAGGSLRLSCAASGRSFSSYRMAWFRQAPGLEREFVAAISRSGSNTDYADSVKGRFTISRDNAKNTVYLQMNSLKPDDTAVYFCAANTSPLLGSVATGQEYYIYWAQGTQVTVSS	
